What follows are sequences tested on Escherichia coli TOP10 (assay: shrunken log2 fold change of peptide-encoding DNA abundance (4.5 h post-induction vs induction); higher = less antimicrobial activity (less host growth inhibition)). Details: time post-induction: 4.5 h; library: site-saturation at positions 5, 18, 19, 20.
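Further: peptides expressed intracellularly from a pBAD plasmid library in pooled LB shake-flask culture, induced with 0.3% L-arabinose, DNA abundance read by NGS, three biological replicates, DESeq2 with apeglm shrinkage.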

Sequence	shrunken log2 fold change
RRIRWRPPRLPRPRPRPFFLPRP	-0.0114
RRIRARPPRLPRPRPRPRSCPRP	0.306
RRIRPRPPRLPRPRPRPDRAPRP	0.622
RRIRTRPPRLPRPRPRPQCKPRP	-0.26
RRIRARPPRLPRPRPRPYTTPRP	-0.168
RRIRERPPRLPRPRPRPECAPRP	0.586
RRIRYRPPRLPRPRPRPHMKPRP	-0.489
RRIRVRPPRLPRPRPRPYADPRP	-0.543
RRIRGRPPRLPRPRPRPLAPPRP	0.998
RRIRARPPRLPRPRPRPHHDPRP	-0.0472
RRIRYRPPRLPRPRPRPEPEPRP	0.0661
RRIRDRPPRLPRPRPRPVHCPRP	-0.0301
RRIRHRPPRLPRPRPRPLDMPRP	-0.0339
RRIRFRPPRLPRPRPRPLPCPRP	-0.199
RRIRHRPPRLPRPRPRPENRPRP	0.019
RRIRFRPPRLPRPRPRPAGGPRP	0.382
RRIRYRPPRLPRPRPRPMYCPRP	-0.00674
RRIRMRPPRLPRPRPRPVNPPRP	0.00934
RRIRRRPPRLPRPRPRPWMNPRP	-0.0882
RRIRERPPRLPRPRPRPHNKPRP	-0.787
RRIRHRPPRLPRPRPRPFEEPRP	0.0124
RRIRMRPPRLPRPRPRPCFAPRP	0.431
RRIRRRPPRLPRPRPRPHMPPRP	-0.037
RRIRHRPPRLPRPRPRPRPGPRP	0.324
RRIRMRPPRLPRPRPRPKRWPRP	1.51

Sequence	shrunken log2 fold change
RRIRFRPPRLPRPRPRPNQIPRP	-0.23
RRIRGRPPRLPRPRPRPAVEPRP	1.21
RRIRWRPPRLPRPRPRPLPEPRP	0.265
RRIRQRPPRLPRPRPRPSCTPRP	-0.167
RRIRARPPRLPRPRPRPKNTPRP	-0.0664
RRIRSRPPRLPRPRPRPTCWPRP	1.09
RRIRKRPPRLPRPRPRPQMWPRP	0.608
RRIRWRPPRLPRPRPRPARLPRP	0.523
RRIRYRPPRLPRPRPRPIWLPRP	-0.175
RRIRPRPPRLPRPRPRPGFAPRP	0.318
RRIRRRPPRLPRPRPRPPYRPRP	0.113
RRIRYRPPRLPRPRPRPVLWPRP	0.0894
RRIRVRPPRLPRPRPRPVHMPRP	-0.0089
RRIRNRPPRLPRPRPRPQHRPRP	-0.215
RRIRLRPPRLPRPRPRPTVWPRP	0.387
RRIRNRPPRLPRPRPRPCEKPRP	-0.0478
RRIRDRPPRLPRPRPRPTNSPRP	0.115
RRIRFRPPRLPRPRPRPDQRPRP	-0.325
RRIRLRPPRLPRPRPRPTHNPRP	-0.0209
RRIRKRPPRLPRPRPRPQWSPRP	0.00166
RRIRWRPPRLPRPRPRPCRQPRP	-0.134
RRIRSRPPRLPRPRPRPYMSPRP	-0.355
RRIRYRPPRLPRPRPRPCCDPRP	-0.479
RRIRLRPPRLPRPRPRPYQPPRP	-0.582
RRIRFRPPRLPRPRPRPRFTPRP	0.0956

Sequence	shrunken log2 fold change
RRIRSRPPRLPRPRPRPERLPRP	0.131
RRIRHRPPRLPRPRPRPCMFPRP	-0.995
RRIRRRPPRLPRPRPRPMFMPRP	-0.192
RRIRSRPPRLPRPRPRPYKAPRP	-0.0488
RRIRGRPPRLPRPRPRPWAQPRP	-0.035
RRIRARPPRLPRPRPRPQGYPRP	0.119
RRIRSRPPRLPRPRPRPKHMPRP	0.00683
RRIRKRPPRLPRPRPRPGLQPRP	-0.00225
RRIRIRPPRLPRPRPRPSDCPRP	-0.497
RRIRGRPPRLPRPRPRPDWIPRP	0.243
RRIRYRPPRLPRPRPRPLAAPRP	0.153
RRIRKRPPRLPRPRPRPSFGPRP	-0.324
RRIRDRPPRLPRPRPRPTSNPRP	0.24
RRIRSRPPRLPRPRPRPQMGPRP	-0.046
RRIRCRPPRLPRPRPRPDRIPRP	-0.0911
RRIRVRPPRLPRPRPRPFLMPRP	-0.208
RRIRPRPPRLPRPRPRPIWFPRP	-0.0151
RRIRFRPPRLPRPRPRPSYRPRP	-0.783
RRIRRRPPRLPRPRPRPECLPRP	0.635
RRIRCRPPRLPRPRPRPPRRPRP	0.909
RRIRKRPPRLPRPRPRPMGRPRP	-0.0264
RRIRQRPPRLPRPRPRPRGQPRP	0.726
RRIRGRPPRLPRPRPRPPKQPRP	0.292
RRIRIRPPRLPRPRPRPSSWPRP	0.025
RRIRLRPPRLPRPRPRPAAWPRP	0.32

Sequence	shrunken log2 fold change
RRIRDRPPRLPRPRPRPYTFPRP	-0.0443
RRIRQRPPRLPRPRPRPTILPRP	0.939
RRIRWRPPRLPRPRPRPSCDPRP	0.574
RRIRERPPRLPRPRPRPYRCPRP	-0.0874
RRIRGRPPRLPRPRPRPQDNPRP	0.0555
RRIRARPPRLPRPRPRPGLFPRP	0.601
RRIRSRPPRLPRPRPRPSARPRP	0.299
RRIRWRPPRLPRPRPRPEGSPRP	0.754
RRIRWRPPRLPRPRPRPYFGPRP	-0.168
RRIRTRPPRLPRPRPRPKEKPRP	0.0414
RRIRARPPRLPRPRPRPKEGPRP	-0.00115
RRIRRRPPRLPRPRPRPVVNPRP	0.61
RRIRQRPPRLPRPRPRPGDFPRP	-0.179
RRIRPRPPRLPRPRPRPFRIPRP	0.000199
RRIRFRPPRLPRPRPRPRIVPRP	-0.267
RRIRERPPRLPRPRPRPRQDPRP	-0.0529
RRIRQRPPRLPRPRPRPCMVPRP	-0.0725
RRIRTRPPRLPRPRPRPMDIPRP	-0.00738
RRIRERPPRLPRPRPRPMFYPRP	-0.0786
RRIRDRPPRLPRPRPRPYLWPRP	-0.0398
RRIRVRPPRLPRPRPRPCHWPRP	0.169
RRIRMRPPRLPRPRPRPDIVPRP	0.0138
RRIRMRPPRLPRPRPRPHFGPRP	0.0712
RRIRTRPPRLPRPRPRPGICPRP	-0.0258
RRIRVRPPRLPRPRPRPFMTPRP	0.127

Sequence	shrunken log2 fold change
RRIRGRPPRLPRPRPRPIRRPRP	0.346
RRIRMRPPRLPRPRPRPVGNPRP	0.0176
RRIRQRPPRLPRPRPRPSEMPRP	0.0648
RRIRFRPPRLPRPRPRPDTIPRP	-0.498
RRIRMRPPRLPRPRPRPTYCPRP	-0.271
RRIRCRPPRLPRPRPRPQPGPRP	0.437
RRIRARPPRLPRPRPRPGLCPRP	0.553
RRIRERPPRLPRPRPRPFCMPRP	-0.126
RRIRTRPPRLPRPRPRPEFSPRP	0.00789
RRIRARPPRLPRPRPRPGVHPRP	0.243
RRIRYRPPRLPRPRPRPHDCPRP	-0.00448
RRIRKRPPRLPRPRPRPSQMPRP	0.247
RRIRCRPPRLPRPRPRPFCCPRP	-0.175
RRIRERPPRLPRPRPRPLAMPRP	-0.246
RRIRKRPPRLPRPRPRPTENPRP	0.143
RRIRQRPPRLPRPRPRPFVIPRP	-0.131
RRIRCRPPRLPRPRPRPVRVPRP	0.272
RRIRHRPPRLPRPRPRPQWMPRP	0.0263
RRIRNRPPRLPRPRPRPCCGPRP	-0.148
RRIRGRPPRLPRPRPRPNMQPRP	0.492
RRIRPRPPRLPRPRPRPIKQPRP	0.109
RRIRGRPPRLPRPRPRPKAYPRP	0.12
RRIRMRPPRLPRPRPRPCTWPRP	-0.0287
RRIRTRPPRLPRPRPRPMLFPRP	0.177
RRIRERPPRLPRPRPRPLEGPRP	-0.363

Reference: the supplement of paper PMC9112550, “Optimization of the antimicrobial peptide Bac7 by deep mutational scanning” (BMC Biology, 2022)
